# B1: CRISPR-associated endonuclease Cas1 (Escherichia coli (strain K12)), Q46896 (parent)
# chain: MTWLPLNPIPLKDRVSMIFLQYGQIDVIDGAFVLIDKTGIRTHIPVGSVACIMLEPGTRVSHAAVRLAAQVGTLLVWVGEAGVRVYASGQPGGARSDKLLYQAKLALDEDLRLKVVRKMFELRFGEPAPARRSVEQLRGIEGSRVRATYALLAKQYGVTWNGRRYDPKDWEKGDTINQCISAATSCLYGVTEAAILAAGYAPAIGFVHTGKPLSFVYDIADIIKFDTVVPKAFEIARRNPGEPDREVRLACRDIFRSSKTLAKLIPLIEDVLAAGEIQPPAPPEDAQPVAIPLPVSLGDAGHRSS
# partner: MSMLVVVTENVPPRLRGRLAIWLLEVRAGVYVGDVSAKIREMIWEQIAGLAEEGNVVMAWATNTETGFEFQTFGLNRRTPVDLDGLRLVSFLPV
# Variants of: B1
# Details: with cas2_ecoli ygbF
row,Variant,effect of a mutation on the interaction
1,MTWLPLNPIPLKDRVSMIFLQYGQIDVIDGAFVLIDKTGIRTHIPVGSVACIMLEPGTRVSHAAVRLAAQVGTLLVWVGEAGVRVYASGQPGGARSDKLLYQAKLALDEDLRLKVVRKMFELRFGEPAPARRSVEQLRGIEGSRVRATYALLAKQYGVTWNGRRYDPKDWEKGDTINQCISAATSCLYGVTEAAILAAGYAPAIGFVHTGKPLSFVYDIADIIKFDTVVPKAFEIARRNPGEPDREVRLACEDIFRSSKTLAKLIPLIEDVLAAGEIQPPAPPEDAQPVAIPLPVSLGDAGHRSS [R252E],disrupting interaction strength

# Reference: IntAct's records for PubMed 24793649
